Data set [1] has as its target T1, LbCas12a D559P (Lachnospiraceae bacterium ND2006). In words: cell_activity; 5 uM RNP, HEK293, 48 h, T7EI; WT 78.5; PAM not stated.
The target of data set [2] is T2, LbCas12a N527R/E795L (Lachnospiraceae bacterium ND2006). The description is as above.
Data set [3] concerns the target T3, LbCas12a N527R (Lachnospiraceae bacterium ND2006). Described as above.
Data set [4] addresses T4, LbCas12a E795L (Lachnospiraceae bacterium ND2006). The description is as above.
In data set [5] the target is T5, LbCas12a D559P/E795L (Lachnospiraceae bacterium ND2006). The data set is described as above.
For data set [6], the target named is T6, LbCas12a N527R/D559P/E795L (Lachnospiraceae bacterium ND2006). The data set is described as above.
Data set [7] has as its target T1, LbCas12a D559P. In words: cell_activity; 5 uM RNP, HEK293, 48 h, T7EI; WT 80.35; PAM not stated.
In data set [8] the target is T2, LbCas12a N527R/E795L. The data set is described as above.
Data set [9] addresses T3, LbCas12a N527R. Described as above.
In data set [10] the target is T4, LbCas12a E795L. Described as above.
The target in data set [11] is T5, LbCas12a D559P/E795L. Described as above.
In data set [12] the target is T6, LbCas12a N527R/D559P/E795L. Described as above.
A further data set addresses LbCas12a N527R/D559P (Lachnospiraceae bacterium ND2006). Described as above.

B1: LbCpf1 HPRT 38330-AS-23 crRNA ; HPRT 38330-AS target (protospacer as DNA, 23 nt) (ssRNA ; dsDNA)
RNA: UAAUUUCUACUAAGUGUAGAUGGUUAAAGAUGGUUAAAUGAUUG
DNA 1: GGTTAAAGATGGTTAAATGATTG
DNA 2: CAATCATTTAACCATCTTTAACC
modifications: Alt-R end modifications on 5' and 3' ends
In the case of B1, the activity with LbCas12a D559P [1] turned out to be 58.4 % cleavage; with LbCas12a N527R/E795L [2], 21.2 % cleavage; with LbCas12a N527R [3] it was 9.6 % cleavage; with LbCas12a E795L [4], 79.5 % cleavage; in the data set with LbCas12a D559P/E795L [5], 75.8 % cleavage; in data set [6], 28.8 % cleavage.

B2: LbCpf1 HPRT 38115-AS-23 crRNA ; HPRT 38115-AS target (protospacer as DNA, 23 nt) (ssRNA ; dsDNA)
RNA: UAAUUUCUACUAAGUGUAGAUACACACCCAAGGAAAGACUAUGA
DNA 1: ACACACCCAAGGAAAGACTATGA
DNA 2: TCATAGTCTTTCCTTGGGTGTGT
modifications: Alt-R end modifications on 5' and 3' ends
On to B2, for which the activity in the data set with LbCas12a D559P [7] worked out at 78 % cleavage; in the data set with LbCas12a N527R/E795L [8], 39.3 % cleavage; with LbCas12a N527R [9], 35 % cleavage; with LbCas12a E795L [10] it was 78.2 % cleavage; with LbCas12a D559P/E795L [11], 79.3 % cleavage; in data set [12], 60.3 % cleavage. Also, the activity with LbCas12a N527R/D559P turned out to be 9.39 % cleavage.

(Values after US20230040148 (published 2023).)
